In patent publication US20260115332A1, “Fibroblast Activation Protein Alpha-Cleavable Pro-Peptides and Methods of Use” (The Regents of the University of California, priority 2022, published 2026):
Where no end group is shown, it is not given here.

Assays:
recombinant human FAPα [1] = molecular target: T1, recombinant human FAPα (Homo sapiens, UniProt Q12884); assay: Multiplex substrate profiling by mass spectrometry (MSP-MS); assay type: biochemical; settings: for # of cleavages on MS: top P4-P4′ peptides cleaved by human FAP alpha; for # of cleavages on MSP-MS: human FAP alpha
T1 sequence (Q12884 26-760 limits assumed): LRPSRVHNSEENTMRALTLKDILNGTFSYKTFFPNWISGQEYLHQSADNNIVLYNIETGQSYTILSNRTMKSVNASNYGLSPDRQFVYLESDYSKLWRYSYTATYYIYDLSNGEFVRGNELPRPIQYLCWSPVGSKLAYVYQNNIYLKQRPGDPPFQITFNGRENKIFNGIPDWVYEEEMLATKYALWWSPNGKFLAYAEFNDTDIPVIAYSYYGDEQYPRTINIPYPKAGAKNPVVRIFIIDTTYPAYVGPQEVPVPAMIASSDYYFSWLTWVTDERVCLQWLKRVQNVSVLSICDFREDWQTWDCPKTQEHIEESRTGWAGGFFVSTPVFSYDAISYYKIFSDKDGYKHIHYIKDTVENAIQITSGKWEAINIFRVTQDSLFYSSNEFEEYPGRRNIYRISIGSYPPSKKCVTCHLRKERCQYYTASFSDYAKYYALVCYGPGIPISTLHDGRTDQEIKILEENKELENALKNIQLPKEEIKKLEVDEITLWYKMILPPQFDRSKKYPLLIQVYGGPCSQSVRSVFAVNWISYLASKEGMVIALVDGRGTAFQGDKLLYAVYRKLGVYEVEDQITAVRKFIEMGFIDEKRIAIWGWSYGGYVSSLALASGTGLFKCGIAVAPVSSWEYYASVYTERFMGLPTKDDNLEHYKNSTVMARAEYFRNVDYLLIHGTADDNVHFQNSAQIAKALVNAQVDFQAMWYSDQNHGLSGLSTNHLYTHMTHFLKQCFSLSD
Protocol: Although much is known about the substrate preferences for FAPα from P4-P1, an optimal P4-P4′ substrate sequence for FAPα has never been defined. In this example, multiplex substrate profiling by mass spectrometry (MSP-MS) was performed to identify candidate FAPα P4-P4′ substrate sequences for potential inclusion in a FAPα targeted restricted interaction peptide (or “FRIP”).
Shown on the top of FIG. 3 is an Icelogo representing the cumulative amino acid preferences for recombinant human FAPα. Shown on the bottom of FIG. 3 is a heat map summarizing the amino acids that were most frequently incorporated at each site in the cleavage products. Lighter indicates an enriched amino acid. X=no preferred amino acid.
A list of the top P4-P4′ peptides cleaved by human FAP alpha as determined using the MSP-MS substrate profiling technology are shown in the following table, where X indicates an undefined amino acid site.

recombinant human FAPα [2] = molecular target: T1, recombinant human FAPα; assay: Kinetics of FRET donor/acceptor 8 mer substrates under Michaelis-Menten conditions; assay type: biochemical; settings: FRET donor/acceptor substrate adducts, human recombinant FAP alpha
Protocol: Three top hits, […] (SEQ ID NO:38), […] (SEQ ID NO:40), and […] (SEQ ID NO:42), were selected for further analysis. An 8 mer peptide bearing FRET donor-acceptor dyes on the N and C terminus was synthesized and evaluated as a substrate for recombinant human FAPα (RND Systems) under Michaelis-Menten conditions.
A table summarizing the kinetic properties of three of the top P4-P4′ 8 mer peptides emerging from the MSP-MS assay is provided below, where the kinetic properties were determined using FRET donor/acceptor substrate adducts and human recombinant FAP alpha.

| Compound | # of cleavages on MS (recombinant human FAPα [1]) | other results |
| --- | --- | --- |
| CN(CCCN1CCN(C(=O)CN2CCN(CC(=O)O)CCN(CC(=O)O)CCN(CC(=O)O)CC2)CC1)c1ccc2nccc(C(=O)NCC(=O)N3CC(F)(F)C[C@H]3C#N)c2c1 [FAPI 46] | – | Tumor dose (Tumor dose per isotope; Ac-225): 720 Gy/mCi; Tumor dose (Tumor dose per isotope; Cu-64): 2 Gy/mCi; Tumor dose (Tumor dose per isotope; Cu-67): 11 Gy/mCi; Tumor dose (Tumor dose per isotope; Lu-177): 16 Gy/mCi; Tumor dose (Tumor dose per isotope; Y-90): 42 Gy/mCi |
| GMGPFHIV | 12 | – |
| HIGPTAAY (also: FRET fluorophore/quencher labels) [tested as 8 mer FRET peptide] | 43 | Km (recombinant human FAPα [2]): 2.45 µM; kcat (recombinant human FAPα [2]): 0.2986 s⁻¹; # of cleavages on MSP-MS (recombinant human FAPα [1]): 43 |
| HQGPFWML (also: FRET labels) [tested as 8 mer FRET peptide] | 30 | Km (recombinant human FAPα [2]): 1.34 µM; kcat (recombinant human FAPα [2]): 0.1041 s⁻¹; # of cleavages on MSP-MS (recombinant human FAPα [1]): 30 |
| HYGPTVNK (also: FRET labels) [tested as 8 mer FRET peptide] | 28 | Km (recombinant human FAPα [2]): 2.7 µM; kcat (recombinant human FAPα [2]): 0.04031 s⁻¹; # of cleavages on MSP-MS (recombinant human FAPα [1]): 28 |
| XSGPDYQK | 14 | – |
| XXFPNMWS | 23 | – |
| XXGPKLTY | 28 | – |
| XXGSQVFS | 21 | – |
| XXHPTKSF | 16 | – |
| XXIARQPW | 14 | – |
| XXIPTNIR | 41 | – |
| XXMPEEVA | 17 | – |
| XXWPMGMY | 26 | – |
| YHGPLAHX | 98 | – |
